Laboratory results reported in PMC8755798 (Nature Communications, 2022).

Molecular target: the molecule itself
Assay: cryo-EM structure

B1: mycobacterial proteasome ATPase (Mpa), Mycobacterium tuberculosis, wild type (enzyme)
chain: MGESERSEAFGIPRDSPLSSGDAAELEQLRREAAVLREQLENAVGSHAPTRSARDIHQLEARIDSLAARNSKLMETLKEARQQLLALREEVDRLGQPPSGYGVLLATHDDDTVDVFTSGRKMRLTCSPNIDAASLKKGQTVRLNEALTVVEAGTFEAVGEISTLREILADGHRALVVGHADEERVVWLADPLIAEDLPDGLPEALNDDTRPRKLRPGDSLLVDTKAGYAFERIPKAEVEDLVLEEVPDVSYADIGGLSRQIEQIRDAVELPFLHKELYREYSLRPPKGVLLYGPPGCGKTLIAKAVANSLAKKMAEVRGDDAHEAKSYFLNIKGPELLNKFVGETERHIRLIFQRAREKASEGTPVIVFFDEMDSIFRTRGTGVSSDVETTVVPQLLSEIDGVEGLENVIVIGASNREDMIDPAILRPGRLDVKIKIERPDAEAAQDIYSKYLTEFLPVHADDLAEFDGDRSACIKAMIEKVVDRMYAEIDDNRFLEVTYANGDKEVMYFKDFNSGAMIQNVVDRAKKNAIKSVLETGQPGLRIQHLLDSIVDEFAENEDLPNTTNPDDWARISGKKGERIVYIRTLVTGKSSSASRAIDTESNLGQYL
  stoichiometry N: 6
